The values below come from US20200190171A1 (FAIRBANKS PHARMACEUTICALS, published 2020).

One assay deals with T1, mouse FSTL3 (mouse, UniProt Q9EQC7 24-256, limits assumed).
T1 construct: also called mFSTL3
T1 sequence (looked up): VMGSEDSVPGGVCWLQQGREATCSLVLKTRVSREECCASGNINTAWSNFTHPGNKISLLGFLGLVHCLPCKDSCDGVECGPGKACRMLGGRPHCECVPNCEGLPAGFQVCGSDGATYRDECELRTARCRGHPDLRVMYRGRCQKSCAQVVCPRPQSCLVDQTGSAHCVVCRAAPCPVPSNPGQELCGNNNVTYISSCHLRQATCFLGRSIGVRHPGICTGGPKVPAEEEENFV
Briefly: Western blot. The protocol:
(§1) Secondary antibody (donkey anti-mouse IgG-Horse Radish Peroxidase label) was purchased from Jackson Immuno Research in West Grove Pa. Human FSTL3 was produced by Fairbanks Pharmaceuticals by cloning the human FSTL3 cDNA into an expression plasmid containing a 6-His tag. 293 cells were transfected with this plasmid and stable colonies selected. Cells were grown for 7-14 days, medium collected, and FSTL3 was purified on Nickel-Sepharose-Sephadex Beads (GE Healthcare Life Sciences, Pittsburgh Pa. Ligands: activin A (Cat No:338-AC-050), activin B (Cat No:659-AB-005), and MSTN (Cat No:788-68-010) were purchased from R&D Systems (Minneapolis, Minn.). GDF11 (Cat No:TP723130), was purchased from Origene (Rockville Md.)
(§2) Direct binding studies were conducted by performing Western blot, a technique well known in the art. Pre-determined doses of human FSTL3 (hFSTL3) or mouse FSTL3 (mFSTL3), that are easily detectable at the end of experimentation, were loaded onto SDS gels (10% NuPage gels). After electrophoresis, proteins were transferred to PVDF membranes and then tested with the selected and purified anti-hFSTL3 antibodies from FIG. 3.

Assay [1] deals with T2, human Follistatin-like-3 (FSTL3) protein, 6-His tagged (human, UniProt O95633 27-263, limits assumed).
T2 construct: Made in-house as a secreted protein from stably transfected 293 cells; also called hFSTL3; human FSTL3; not shown: 6-His tag
T2 sequence (looked up): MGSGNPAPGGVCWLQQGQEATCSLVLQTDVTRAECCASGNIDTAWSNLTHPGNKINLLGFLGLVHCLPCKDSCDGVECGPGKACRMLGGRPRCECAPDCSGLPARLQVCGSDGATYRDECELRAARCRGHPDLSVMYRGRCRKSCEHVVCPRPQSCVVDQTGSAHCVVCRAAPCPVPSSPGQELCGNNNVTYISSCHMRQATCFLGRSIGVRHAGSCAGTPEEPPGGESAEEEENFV
The assay can be described thus: Western blot. The protocol:
as §1, §2

B1: FP-102 anti-hFSTL3 monoclonal antibody (antibody, V domains shown)
VH: QVKLQQPGAELVKPGASVKLSCKASGYTFTSYWMHWVNQRPGQGLEWIGEINPGNGRTNYNEKFKSKATLTVDKSSSTAYMQLSSLTSEDSAVYFCARWLLPRGPMDYWGQGTSVTVSS
VL: DIVLTQSQKFMSTSVGDRVSVTCKASQNVGTNVAWYQQKPGQSPQGLIYSASYRYSGVPDRFTGSGSGTDFTLTISNVQSEDLAEYFCQQYNSYPLTFGAGTKLELKR
notes: Murine monoclonal from Balb-C mice; also called clone 33
Regarding B1, the binding result (with mouse FSTL3; in assay [1]) was “binds” each time.
